Measured values: IntAct's records for PubMed 17235283

B1: Lymphocyte cytosolic protein 2 (Homo sapiens), Q13094 (parent)
chain: MALRNVPFRSEVLGWDPDSLADYFKKLNYKDCEKAVKKYHIDGARFLNLTENDIQKFPKLRVPILSKLSQEINKNEERRSIFTRKPQVPRFPEETESHEEDNGGWSSFEEDDYESPNDDQDGEDDGDYESPNEEEEAPVEDDADYEPPPSNDEEALQNSILPAKPFPNSNSMYIDRPPSGKTPQQPPVPPQRPMAALPPPPAGRNHSPLPPPQTNHEEPSRSRNHKTAKLPAPSIDRSTKPPLDRSLAPFDREPFTLGKKPPFSDKPSIPAGRSLGEHLPKIQKPPLPPTTERHERSSPLPGKKPPVPKHGWGPDRRENDEDDVHQRPLPQPALLPMSSNTFPSRSTKPSPMNPLPSSHMPGAFSESNSSFPQSASLPPYFSQGPSNRPPIRAEGRNFPLPLPNKPRPPSPAEEENSLNEEWYVSYITRPEAEAALRKINQDGTFLVRDSSKKTTTNPYVLMVLYKDKVYNIQIRYQKESQVYLLGTGLRGKEDFLSVSDIIDYFRKMPLLLIDGKNRGSRYQCTLTHAAGYP

Variants of: B1
Settings: with stam1_human STAM

Q: With MALRNVPFRSEVLGWDPDSLADYFKKLNYKDCEKAVKKYHIDGARFLNLTENDIQKFPKLRVPILSKLSQEINKNEERRSIFTRKPQVPRFPEETESHEEDNGGWSSFEEDDYESPNDDQDGEDDGDYESPNEEEEAPVEDDADYEPPPSNDEEALQNSILPAKPFPNSNSMYIDRPPSGKTPQQPPVPPQRPMAALPPPPAGRNHSPLPPPQTNHEEPSRSRNHKTAKLPAPPIDRSTKPPLDRSLAPFDREPFTLGKKPPFSDKPSIPAGRSLGEHLPKIQKPPLPPTTERHERSSPLPGKKPPVPKHGWGPDRRENDEDDVHQRPLPQPALLPMSSNTFPSRSTKPSPMNPLPSSHMPGAFSESNSSFPQSASLPPYFSQGPSNRPPIRAEGRNFPLPLPNKPRPPSPAEEENSLNEEWYVSYITRPEAEAALRKINQDGTFLVRDSSKKTTTNPYVLMVLYKDKVYNIQIRYQKESQVYLLGTGLRGKEDFLSVSDIIDYFRKMPLLLIDGKNRGSRYQCTLTHAAGYP [S234P] as the variant, how does the “effect of a mutation on the interaction” value read?
A: Its value is “decreasing interaction”.

Variants of: B1
Settings: with stam2_human STAM2, O75886

Q: Which “effect of a mutation on the interaction” value does the source give for MALRNVPFRSEVLGWDPDSLADYFKKLNYKDCEKAVKKYHIDGARFLNLTENDIQKFPKLRVPILSKLSQEINKNEERRSIFTRKPQVPRFPEETESHEEDNGGWSSFEEDDYESPNDDQDGEDDGDYESPNEEEEAPVEDDADYEPPPSNDEEALQNSILPAKPFPNSNSMYIDRPPSGKTPQQPPVPPQRPMAALPPPPAGRNHSPLPPPQTNHEEPSRSRNHKTAKLPAPPIDRSTKPPLDRSLAPFDREPFTLGKKPPFSDKPSIPAGRSLGEHLPKIQKPPLPPTTERHERSSPLPGKKPPVPKHGWGPDRRENDEDDVHQRPLPQPALLPMSSNTFPSRSTKPSPMNPLPSSHMPGAFSESNSSFPQSASLPPYFSQGPSNRPPIRAEGRNFPLPLPNKPRPPSPAEEENSLNEEWYVSYITRPEAEAALRKINQDGTFLVRDSSKKTTTNPYVLMVLYKDKVYNIQIRYQKESQVYLLGTGLRGKEDFLSVSDIIDYFRKMPLLLIDGKNRGSRYQCTLTHAAGYP [S234P] here?
A: Its value is “decreasing interaction”.

Variants of: B1
Settings: with grb2_human GRB2, P62993
Chain of grb2_human GRB2, P62993 (P62993 whole entry, looked up): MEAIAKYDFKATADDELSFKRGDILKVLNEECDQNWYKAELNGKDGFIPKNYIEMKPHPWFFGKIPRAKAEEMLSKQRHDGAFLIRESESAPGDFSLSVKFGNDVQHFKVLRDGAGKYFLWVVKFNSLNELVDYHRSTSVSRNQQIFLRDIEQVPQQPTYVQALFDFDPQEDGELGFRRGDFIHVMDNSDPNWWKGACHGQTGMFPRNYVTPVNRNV

Q: MALRNVPFRSEVLGWDPDSLADYFKKLNYKDCEKAVKKYHIDGARFLNLTENDIQKFPKLRVPILSKLSQEINKNEERRSIFTRKPQVPRFPEETESHEEDNGGWSSFEEDDYESPNDDQDGEDDGDYESPNEEEEAPVEDDADYEPPPSNDEEALQNSILPAKPFPNSNSMYIDRPPSGKTPQQPPVPPQRPMAALPPPPAGRNHSPLPPPQTNHEEPSRSRNHKTAKLPAPSIDRSPKPPLDRSLAPFDREPFTLGKKPPFSDKPSIPAGRSLGEHLPKIQKPPLPPTTERHERSSPLPGKKPPVPKHGWGPDRRENDEDDVHQRPLPQPALLPMSSNTFPSRSTKPSPMNPLPSSHMPGAFSESNSSFPQSASLPPYFSQGPSNRPPIRAEGRNFPLPLPNKPRPPSPAEEENSLNEEWYVSYITRPEAEAALRKINQDGTFLVRDSSKKTTTNPYVLMVLYKDKVYNIQIRYQKESQVYLLGTGLRGKEDFLSVSDIIDYFRKMPLLLIDGKNRGSRYQCTLTHAAGYP [T239P] was tested. Which “effect of a mutation on the interaction” value did it give?
A: Its value is “disrupting interaction”.

Variants of: B1
Settings: with stam1_human STAM
Remark: another data set of the same source

Q: How did the “effect of a mutation on the interaction” value turn out when MALRNVPFRSEVLGWDPDSLADYFKKLNYKDCEKAVKKYHIDGARFLNLTENDIQKFPKLRVPILSKLSQEINKNEERRSIFTRKPQVPRFPEETESHEEDNGGWSSFEEDDYESPNDDQDGEDDGDYESPNEEEEAPVEDDADYEPPPSNDEEALQNSILPAKPFPNSNSMYIDRPPSGKTPQQPPVPPQRPMAALPPPPAGRNHSPLPPPQTNHEEPSRSRNHKTAKLPAPSIDRSPKPPLDRSLAPFDREPFTLGKKPPFSDKPSIPAGRSLGEHLPKIQKPPLPPTTERHERSSPLPGKKPPVPKHGWGPDRRENDEDDVHQRPLPQPALLPMSSNTFPSRSTKPSPMNPLPSSHMPGAFSESNSSFPQSASLPPYFSQGPSNRPPIRAEGRNFPLPLPNKPRPPSPAEEENSLNEEWYVSYITRPEAEAALRKINQDGTFLVRDSSKKTTTNPYVLMVLYKDKVYNIQIRYQKESQVYLLGTGLRGKEDFLSVSDIIDYFRKMPLLLIDGKNRGSRYQCTLTHAAGYP [T239P] was run?
A: Its value is “disrupting interaction”.

Variants of: B1
Settings: with stam2_human STAM2, O75886
Remark: another data set of the same source

Q: With MALRNVPFRSEVLGWDPDSLADYFKKLNYKDCEKAVKKYHIDGARFLNLTENDIQKFPKLRVPILSKLSQEINKNEERRSIFTRKPQVPRFPEETESHEEDNGGWSSFEEDDYESPNDDQDGEDDGDYESPNEEEEAPVEDDADYEPPPSNDEEALQNSILPAKPFPNSNSMYIDRPPSGKTPQQPPVPPQRPMAALPPPPAGRNHSPLPPPQTNHEEPSRSRNHKTAKLPAPSIDRSPKPPLDRSLAPFDREPFTLGKKPPFSDKPSIPAGRSLGEHLPKIQKPPLPPTTERHERSSPLPGKKPPVPKHGWGPDRRENDEDDVHQRPLPQPALLPMSSNTFPSRSTKPSPMNPLPSSHMPGAFSESNSSFPQSASLPPYFSQGPSNRPPIRAEGRNFPLPLPNKPRPPSPAEEENSLNEEWYVSYITRPEAEAALRKINQDGTFLVRDSSKKTTTNPYVLMVLYKDKVYNIQIRYQKESQVYLLGTGLRGKEDFLSVSDIIDYFRKMPLLLIDGKNRGSRYQCTLTHAAGYP [T239P] as the variant, how does the “effect of a mutation on the interaction” value read?
A: The value was “disrupting interaction”.

Variants of: B1
Settings: with grb2_human GRB2, P62993
Remark: another data set of the same source

Q: Which “effect of a mutation on the interaction” value does the source give for MALRNVPFRSEVLGWDPDSLADYFKKLNYKDCEKAVKKYHIDGARFLNLTENDIQKFPKLRVPILSKLSQEINKNEERRSIFTRKPQVPRFPEETESHEEDNGGWSSFEEDDYESPNDDQDGEDDGDYESPNEEEEAPVEDDADYEPPPSNDEEALQNSILPAKPFPNSNSMYIDRPPSGKTPQQPPVPPQRPMAALPPPPAGRNHSPLPPPQTNHEEPSRSRNHKTAKLPAPSIDRRTKPPLDRSLAPFDREPFTLGKKPPFSDKPSIPAGRSLGEHLPKIQKPPLPPTTERHERSSPLPGKKPPVPKHGWGPDRRENDEDDVHQRPLPQPALLPMSSNTFPSRSTKPSPMNPLPSSHMPGAFSESNSSFPQSASLPPYFSQGPSNRPPIRAEGRNFPLPLPNKPRPPSPAEEENSLNEEWYVSYITRPEAEAALRKINQDGTFLVRDSSKKTTTNPYVLMVLYKDKVYNIQIRYQKESQVYLLGTGLRGKEDFLSVSDIIDYFRKMPLLLIDGKNRGSRYQCTLTHAAGYP [S238R] here?
A: Its value is “decreasing interaction”.

Variants of: B1
Settings: with stam1_human STAM
Remark: another data set of the same source

Q: With MALRNVPFRSEVLGWDPDSLADYFKKLNYKDCEKAVKKYHIDGARFLNLTENDIQKFPKLRVPILSKLSQEINKNEERRSIFTRKPQVPRFPEETESHEEDNGGWSSFEEDDYESPNDDQDGEDDGDYESPNEEEEAPVEDDADYEPPPSNDEEALQNSILPAKPFPNSNSMYIDRPPSGKTPQQPPVPPQRPMAALPPPPAGRNHSPLPPPQTNHEEPSRSRNHKTAKLPAPSIDRRTKPPLDRSLAPFDREPFTLGKKPPFSDKPSIPAGRSLGEHLPKIQKPPLPPTTERHERSSPLPGKKPPVPKHGWGPDRRENDEDDVHQRPLPQPALLPMSSNTFPSRSTKPSPMNPLPSSHMPGAFSESNSSFPQSASLPPYFSQGPSNRPPIRAEGRNFPLPLPNKPRPPSPAEEENSLNEEWYVSYITRPEAEAALRKINQDGTFLVRDSSKKTTTNPYVLMVLYKDKVYNIQIRYQKESQVYLLGTGLRGKEDFLSVSDIIDYFRKMPLLLIDGKNRGSRYQCTLTHAAGYP [S238R] as the variant, how does the “effect of a mutation on the interaction” value read?
A: The value was “decreasing interaction”.

Variants of: B1
Settings: with stam2_human STAM2, O75886
Remark: another data set of the same source

Q: For MALRNVPFRSEVLGWDPDSLADYFKKLNYKDCEKAVKKYHIDGARFLNLTENDIQKFPKLRVPILSKLSQEINKNEERRSIFTRKPQVPRFPEETESHEEDNGGWSSFEEDDYESPNDDQDGEDDGDYESPNEEEEAPVEDDADYEPPPSNDEEALQNSILPAKPFPNSNSMYIDRPPSGKTPQQPPVPPQRPMAALPPPPAGRNHSPLPPPQTNHEEPSRSRNHKTAKLPAPSIDRRTKPPLDRSLAPFDREPFTLGKKPPFSDKPSIPAGRSLGEHLPKIQKPPLPPTTERHERSSPLPGKKPPVPKHGWGPDRRENDEDDVHQRPLPQPALLPMSSNTFPSRSTKPSPMNPLPSSHMPGAFSESNSSFPQSASLPPYFSQGPSNRPPIRAEGRNFPLPLPNKPRPPSPAEEENSLNEEWYVSYITRPEAEAALRKINQDGTFLVRDSSKKTTTNPYVLMVLYKDKVYNIQIRYQKESQVYLLGTGLRGKEDFLSVSDIIDYFRKMPLLLIDGKNRGSRYQCTLTHAAGYP [S238R], which “effect of a mutation on the interaction” value is on record?
A: Its value is “decreasing interaction”.
